Assay results published in patent US20180282397A1 (UNIVERSITY OF SOUTHERN CALIFORNIA, published 2018).

Tests used:
K-Ras(G12V, Y32R) [1] = target: T1, K-Ras(G12V, Y32R) (human, UniProt P01116-2 1-185, limits assumed, biotinylated (pDW363 vector, BirA)); assay: radioactive in vitro pull-down of [35S]Met-labelled RasIn2 on bead-immobilised target [d]
T1 construct: Made by site-directed mutagenesis of pDW363 K-Ras(G12V); also called Y32R Switch I mutant; Y32R mutation

Arf1-GTP = target: T2, Arf1-GTP (UniProt P84077 18-179, biotinylated (pDW363 vector, BirA)); assay: radioactive in vitro pull-down of [35S]Met-labelled RasIn2 on bead-immobilised target [c]
T2 construct: range 18-179

Rap1B(G12V)-GTP = target: T3, Rap1B(G12V)-GTP (Pan troglodytes (Chimpanzee), UniProt A5A6J7 1-166, biotinylated (pDW363 vector, BirA)); assay: as above
T3 construct: also called Rap1B-GTP
T3 chain: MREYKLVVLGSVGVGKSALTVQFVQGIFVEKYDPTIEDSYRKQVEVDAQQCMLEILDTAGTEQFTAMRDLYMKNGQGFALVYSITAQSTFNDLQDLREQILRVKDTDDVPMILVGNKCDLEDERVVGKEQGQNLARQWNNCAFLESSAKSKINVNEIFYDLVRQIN

H-Ras(G12V)-GTP [2] = target: T4, H-Ras(G12V)-GTP (Homo sapiens (Human), UniProt P01112 1-166); assay: radioactive in vitro pull-down on Ras-GTP beads (FIG. 6b)
T4 construct: also called H-Ras(G12V)-GppNHp; active H-Ras(G12V); not shown: avitag and His tag at the 5' (N-terminal) end

H-Ras(G12V)-GTP [3] = target: T4, H-Ras(G12V)-GTP; assay: SPR (Biacore T100), H-Ras(G12V) on a streptavidin chip exchanged with GppNHp, maltose binding protein-intrabody fusion injected [e]
H-Ras(G12V)-GTP [4] = target: T4, H-Ras(G12V)-GTP; assay: SPR, Biacore T100, biotinylated H-Ras(G12V)-GppNHp on streptavidin chip, MBP-intrabody fusion injected, 25 C
K-Ras(G12V)-GTP [5] = target: T5, K-Ras(G12V)-GTP (human, UniProt P79800 1-166 (Meleagris gallopavo entry), biotinylated in vivo on the avitag (BirA)); assay: radioactive pull-down of RasIn1 on Ras-GTP beads; competitor Raf-RBD in molar excess
T5 construct: Active state: immobilised on neutravidin/streptavidin beads and exchanged with GTP or GTPγS; Same protein as m18, other nucleotide; also called K-Ras(G12V)-GTPγS; K-Ras(GTPγS); not shown: avitag and His tag at the 5' (N-terminal) end

K-Ras(G12V, Y32R) [6] = target: T1, K-Ras(G12V, Y32R); assay: radioactive in vitro pull-down of [35S]Met-labelled RasIn1 on bead-immobilised target [b]
K-Ras(G12V)-GTP [7] = target: T5, K-Ras(G12V)-GTP; assay: radioactive in vitro pull-down of [35S]-labelled RasIn1 and point mutants on immobilised K-Ras-GTP [a]
H-Ras(G12V)-GTP [8] = target: T4, H-Ras(G12V)-GTP; assay: SPR, KD of RasIn2 against KD of the parent clone RasIn1
H-Ras(G12V)-GTP [9] = target: T4, H-Ras(G12V)-GTP; assay: ELISA, biotin-labeled H-Ras(G12V)-GppNHp on streptavidin plate, anti-FLAG detection, OD450

B1: RasIn2 (designed binder)
chain: MLEVKEASPTSIQISWSIVFGKHDRYYRITYGETGGNSPVQEFTVPGSKSAATISGLKPGVDYTITVYAVTFRWPKRRLVRPISINYRT
notes: also called Clone 3; radiolabeled RasIn2
- binding result (K-Ras(G12V, Y32R) [1]): no binding
- binding result (Arf1-GTP): no binding
- binding result (Rap1B(G12V)-GTP): no binding
- % binding (pull-down) (H-Ras(G12V)-GTP [2]): > 70%

B2: Clone 1 (designed binder)
chain: MLEVKEASPTSIQISWGRVFSLDSRYYRITYGETGGNSPVQEFTVPGSKSAATISGLKPGVDYTITVYAVTFRWPNPRLVRPISINYRT
notes: also called Clone 1 of maturation pool 5
- % binding (pull-down) (H-Ras(G12V)-GTP [2]): > 70%

B3: Clone 2 (designed binder)
chain: MLEVKEASPTSIQISWEYVFGRHDRYYRITYGETGGNSPVQEFTVPGSKSAATISGLKPGVDYTITVYAVTFRWPKRRLLWPISINYRT
notes: also called Clone 2 of maturation pool 5
- % binding (pull-down) (H-Ras(G12V)-GTP [2]): > 70%

B4: Clone 4 (designed binder)
chain: MLEVKEASPTSIQISWGSVFRADSRYYRITYGETGGNSPVQEFTVPGSKSAATISGLKPGVDYTITVYAVTFRWPRPRLLWPISINYRT
notes: also called clone 4 of maturation pool 5
- % binding (pull-down) (H-Ras(G12V)-GTP [2]): > 70%

B5: RasIn1 maltose binding protein fusion (designed binder, not shown: large carriers)
chain: MLEVKEASPTSIQISWGPVFSAYSRYYRITYGETGGNSPVQEFTVPGSKSAATISGLKPGVDYTITVYAVTFRWPMPRLVRPISINYRT
- Kd (H-Ras(G12V)-GTP [3]): 2000 nM
- Kd (H-Ras(G12V)-GTP [4]): 2100 nM

B6: RasIn1 (designed binder)
chain: MLEVKEASPTSIQISWGPVFSAYSRYYRITYGETGGNSPVQEFTVPGSKSAATISGLKPGVDYTITVYAVTFRWPMPRLVRPISINYRT
notes: also called radiolabeled RasIn1; parental RasIn1 clone
- fold decrease of binding with Raf-RBD (K-Ras(G12V)-GTP [5]): 12 fold
- binding result (K-Ras(G12V, Y32R) [6]): no binding

B7: RasIn1 R72A (designed binder)
chain: MLEVKEASPTSIQISWGPVFSAYSRYYRITYGETGGNSPVQEFTVPGSKSAATISGLKPGVDYTITVYAVTFAWPMPRLVRPISINYRT
modifications: [35S]Met radiolabel from in vitro translation; letters unchanged
notes: FG loop mutant
- binding result (K-Ras(G12V)-GTP [7]): no binding

B8: RasIn1 R77A (designed binder)
chain: MLEVKEASPTSIQISWGPVFSAYSRYYRITYGETGGNSPVQEFTVPGSKSAATISGLKPGVDYTITVYAVTFRWPMPALVRPISINYRT
modifications: [35S]Met radiolabel from in vitro translation; letters unchanged
notes: FG loop mutant
- binding result (K-Ras(G12V)-GTP [7]): no binding

B9: RasIn1 S24R (designed binder)
chain: MLEVKEASPTSIQISWGPVFSAYRRYYRITYGETGGNSPVQEFTVPGSKSAATISGLKPGVDYTITVYAVTFRWPMPRLVRPISINYRT
modifications: [35S]Met radiolabel from in vitro translation; letters unchanged
notes: Radiolabeled point mutant of RasIn1, BC loop
- binding result (K-Ras(G12V)-GTP [7]): no binding

B10: RasIn2 maltose binding protein fusion (designed binder, not shown: large carriers)
chain: MLEVKEASPTSIQISWSIVFGKHDRYYRITYGETGGNSPVQEFTVPGSKSAATISGLKPGVDYTITVYAVTFRWPKRRLVRPISINYRT
- fold increase in affinity versus RasIn1 (H-Ras(G12V)-GTP [8]): ~20 fold
- Kd (H-Ras(G12V)-GTP [4]): 120 nM

B11: FLAG-tagged RasIn2 (designed binder, not shown: large carriers)
chain: MLEVKEASPTSIQISWSIVFGKHDRYYRITYGETGGNSPVQEFTVPGSKSAATISGLKPGVDYTITVYAVTFRWPKRRLVRPISINYRT
notes: also called RasIn2 protein
- fold ELISA signal versus Raf-RBD (H-Ras(G12V)-GTP [9]): ~10 fold
